Test results taken from patent US20220281981A1 (INVECTYS, published 2022).

How the values were obtained:
[1] = target: T1, HLA-G1 β2M-associated, on lentivirus-transduced cells (Jurkat HLA-G1Lv, K562 HLA-G1Lv) (human, UniProt P17693 25-338; P61769 21-119); assay: flow cytometry on Jurkat HLA-G1Lv and K562 HLA-G1Lv cells, GAM-PE detection
T1 construct: whole, on cells; also called HLA-G1 B2M-associated
Protocol: Flow cytometry analyses were performed using LSR FORTESSA (Beckton Dickinson, Le Pont-de-Claix, France); data were analyzed with FlowJo X software (Tree star, Ashland, USA).

HLA-G1/5 β2M-free = target: T2, HLA-G1/5 β2M-free (human, UniProt P17693 25-298, limits assumed); assay: flow cytometry, titration of 15E7, readout % of binding
T2 construct: Printed as one antigen, 'HLA-G1/5 β2M-free'; also called HLA-G1/β2M free; HLA-G5/β2M free

HLA-G6 = HLA-G6 (human, UniProt P17693-6 25-227, limits assumed); assay: as above

- binding result [1]: no binding
- EC50 (read off the curve) (HLA-G1/5 β2M-free): ~0.02 mg/L
- EC50 (read off the curve) (HLA-G6): ~0.1 mg/L
B1: 15E7 monoclonal antibody (antibody, V domains shown)
VH: QVQLQQPGAELVRPGSSVKLSCKASGYTFTDYWMDWVKQRPGQGLEWIGTIYPSDSSTHYNQEFKGKATMTVDKSSSTAYMHLSSLTSEDSAVYYCAREGLAGVFYFDYWGQGTTLTVSS
VL: DVLMTQIPFSLPVSLGDQASISCRSSQSIVHRSGNTYLEWYLQKPGQSPKLLIYKVSNRFSGVPDRFSGSGSGTDFTLKISRVEAEDLGVYYCFQGSHLPPTFGGGTTLEIK
notes: Tested as a monoclonal antibody in flow cytometry and detected with goat anti-mouse IgG; also called 15E7 antibody; anti HLA-G-α3 β2M-free 15E7 antibody
